These results are taken from patent US20060252053A1 (Dana-Farber, published 2006).

The target of test [1] is endogenous Apaf-1 polypeptide of 293T cells (human) (UniProt O14727). Nature of the test: cell-based or functional assay.
Test [2] concerns the target T1, cytochrome c (endogenous, LNZ308, U87MG and 293T cells) (human, UniProt P99999 2-105).
T1 construct: also called apoptosome component cytochrome c
Put plainly: anti-L12-2 immunoprecipitation from LNZ308, U87MG and 293T lysates, western blot. The procedure:
(§1) To define further the molecular actions of Bcl2L12 polypeptides, the physical interactions with key post-mitochondrial apoptosis signaling molecules were assessed. Anti-L12-2 immunoprecipitates from lysates of LNZ308, U87MG, and 293T cells were subjected to western blot analysis for procaspases 7 and 3 and cytochrome c. Briefly, cells were lysed in IP buffer. Cleared supernatants were incubated with prebleed serum (8 μl) coupled to Protein A-sepharose 4B beads (Sigma) for 1 hour and subsequently with anti-L12-2 antiserum (8 μl) for 1 to 2 hours. […] The blots were washed with PBS/Tween and developed with goat anti-rabbit IgG (1:10,000) or with goat anti-mouse antibodies (1:10,000) (Pierce) in 5% milk PBS/Tween. After washing with PBS/Tween, the blots were developed with the Lumigen PS3 kit (Amersham) following the manufacturer's protocol. 1/40 of the lysate used for the immunoprecipitation was loaded to quantify the amount of co-immunoprecipitated caspase-7. […] Anti-L12-2 immunoprecipitates from control- and siRNA#5-treated U87MG cells were also subjected to western blot analysis for caspase-7.
On the technique in general: Immunoblotting shows a protein as a band on a membrane.

For test [3], the target named is T2, endogenous procaspase-3 (LNZ308, U87MG and 293T cells) (human, UniProt P42574 1-277).
T2 sequence (looked up): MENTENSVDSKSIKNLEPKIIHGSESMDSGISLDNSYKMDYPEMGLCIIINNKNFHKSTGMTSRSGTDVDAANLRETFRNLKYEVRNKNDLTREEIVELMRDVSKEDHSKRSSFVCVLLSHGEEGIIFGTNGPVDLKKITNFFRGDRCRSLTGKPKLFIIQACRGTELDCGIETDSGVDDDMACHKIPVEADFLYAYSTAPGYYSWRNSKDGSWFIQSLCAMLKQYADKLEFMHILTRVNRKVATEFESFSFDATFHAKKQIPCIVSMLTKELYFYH
The description is as above. How it is done:
as §1

Chain of endogenous Apaf-1 polypeptide of 293T cells (human) (O14727 whole entry): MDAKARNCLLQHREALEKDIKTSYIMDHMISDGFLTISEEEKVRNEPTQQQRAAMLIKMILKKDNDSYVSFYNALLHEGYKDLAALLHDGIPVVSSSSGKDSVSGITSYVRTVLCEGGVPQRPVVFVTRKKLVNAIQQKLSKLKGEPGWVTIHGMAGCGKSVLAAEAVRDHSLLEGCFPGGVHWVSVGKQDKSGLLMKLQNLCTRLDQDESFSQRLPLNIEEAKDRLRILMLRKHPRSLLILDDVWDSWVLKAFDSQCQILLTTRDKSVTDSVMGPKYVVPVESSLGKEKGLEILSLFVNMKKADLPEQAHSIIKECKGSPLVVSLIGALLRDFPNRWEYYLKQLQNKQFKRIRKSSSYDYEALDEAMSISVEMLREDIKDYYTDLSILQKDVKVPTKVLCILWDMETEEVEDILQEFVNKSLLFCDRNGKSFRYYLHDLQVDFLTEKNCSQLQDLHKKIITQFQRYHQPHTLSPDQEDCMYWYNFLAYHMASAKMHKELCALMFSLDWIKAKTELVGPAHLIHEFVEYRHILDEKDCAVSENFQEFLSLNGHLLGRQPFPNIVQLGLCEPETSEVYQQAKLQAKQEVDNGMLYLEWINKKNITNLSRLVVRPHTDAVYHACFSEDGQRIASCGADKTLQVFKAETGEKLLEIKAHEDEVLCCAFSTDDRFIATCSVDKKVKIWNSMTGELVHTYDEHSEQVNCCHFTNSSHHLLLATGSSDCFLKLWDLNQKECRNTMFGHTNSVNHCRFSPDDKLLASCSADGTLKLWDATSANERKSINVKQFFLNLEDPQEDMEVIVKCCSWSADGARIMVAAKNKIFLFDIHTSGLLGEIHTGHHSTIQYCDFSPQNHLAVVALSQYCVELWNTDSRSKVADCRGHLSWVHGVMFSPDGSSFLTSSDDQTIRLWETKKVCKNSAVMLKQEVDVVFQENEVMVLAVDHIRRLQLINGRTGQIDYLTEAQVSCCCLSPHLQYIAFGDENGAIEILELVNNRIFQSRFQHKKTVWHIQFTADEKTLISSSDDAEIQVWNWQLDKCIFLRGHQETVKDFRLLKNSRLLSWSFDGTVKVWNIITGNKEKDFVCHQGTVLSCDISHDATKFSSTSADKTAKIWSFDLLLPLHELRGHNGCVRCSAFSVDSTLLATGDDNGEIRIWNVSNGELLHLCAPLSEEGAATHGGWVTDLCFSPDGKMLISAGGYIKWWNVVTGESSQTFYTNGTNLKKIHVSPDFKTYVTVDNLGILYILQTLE
T1 sequence (P99999 2-105 limits assumed): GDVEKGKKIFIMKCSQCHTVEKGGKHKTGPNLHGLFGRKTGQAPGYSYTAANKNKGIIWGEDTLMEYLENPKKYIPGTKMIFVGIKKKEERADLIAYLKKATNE

For “Bcl2L12-ΔBH2ΔP-rΔIHD polypeptide, V5 tagged (human amino acid sequence 1-167)”, in test [1], the caspase-9 activity in 293T cells (vector only: about 420 RFUs) came out at 160 RFUs.

B1: endogenous Bcl2L12 polypeptide of human cell lines (LNZ308, LN443, LN382, U87MG, 293T) (other)
chain: MGRPAGLFPPLCPFLGFRPEACWERHMQIERAPSVPPFLRWAGYRPGPVRRRGKVELIKFVRVQWRRPQVEWRRRRWGPGPGASMAGSEELGLREDTLRVLAAFLRRGEAAGSPVPTPPRSPAQEEPTDFLSRLRRCLPCSLGRGAAPSESPRPCSLPIRPCYGLEPGPATPDFYALVAQRLEQLVQEQLKSPPSPELQGPPSTEKEAILRRLVALLEEEAEVINQKLASDPALRSKLVRLSSDSFARLVELFCSRDDSSRPSRACPGPPPPSPEPLARLALAMELSRRVAGLGGTLAGLSVEHVHSFTPWIQAHGGWEGILAVSPVDLNLPLD
notes: Endogenous protein in lysates or fixed cells of human cell lines
In the case of B1, the binding result in test [2] and in test [3] was “no binding” throughout.
